# Data as given in US11851498B2, “Anti-CD276 antibodies (B7H3)” (THE UNITED STATES OF AMERICA, as represented by THE …, priority 2014, dated 2023).
# B1: m8524-ADC: m8524 antibody conjugated to MMAE via a linking moiety; n is 2, 4, 6, or 8 (conjugate)
# VH: QVQLQQSGAEVKKPGSSVKVSCKASGGTFSSYAISWVRQAPGQGLEWMGGIIPILGIANYAQKFQGRVTITADESTSTAYMELSSLRSEDTAVYYCARGGSGSYHMDVWGKGTTVTVSS
# VL: EIVLTQSPATLSLSPGERATLSCRASQSVSSYLAWYQQKPGQAPRLLIYDASNRATGIPARFSGSGSGTDFTLTISSLEPEDFAVYYCQQRSNWPPRITFGQGTRLEIK
# Assays:
# HEK 293 cells (293) = test: Cell viability of untransduced HEK 293 cells; details: 293 cells (low CD276); various concentrations (nM); FIG. 7
# Procedure: (§1) HEK 293 cells (293) or HEK 293 cells transduced with CD276 (293/CD276) were treated with MMAE alone, m8524 (m276) (SEQ ID NOs: 26 and 27) antibody alone, m825 (irrelevant control antibody)-ADC, or m8524-ADC. The drug of the ADCs was MMAE.
# 293/CD276 cells = test: Cell viability of HEK 293 cells transduced with CD276; details: FIG. 7
# Procedure: as §1
# [1] = tested on: HCT-116 human colon cancer xenografts; test: HCT-116 human colon cancer xenografts in athymic nude mice; type: in vivo; details: 1, 3, 10 or 30 mpk twice a week for three weeks; FIGS. 8 and 9
# Procedure: Athymic nude mice bearing HCT-116 human colon cancer xenografts were treated with control (vehicle), m8524 (m276) (SEQ ID NOs: 26 and 27) alone (30 mg/kg (mpk)), or m8524 (m276)-MMAE ADCs at various dosages (1 mpk, 3 mpk, 10 mpk, or 30 mpk) twice a week for three weeks. Tumor volume was measured at various time points after administration.
# [2] = tested on: HT29 human colorectal adenocarcinoma xenografts; test: HT29 human colorectal adenocarcinoma xenografts in athymic nude mice; type: in vivo; details: 1, 3 or 10 mpk twice a week for three weeks; FIG. 10
# Procedure: Athymic nude mice bearing HT29 human colorectal adenocarcinoma xenografts were treated with control (vehicle), m8524 (m276) (SEQ ID NOs: 26 and 27) alone (10 mg/kg (mpk)), or m8524 (m276)-MMAE ADCs at various dosages (1 mpk, 3 mpk, or 10 mpk) twice a week for three weeks. Tumor volume was measured at various time points after administration.
# [3] = tested on: KM12 human colon carcinoma xenografts; test: KM12 human colon carcinoma xenografts in athymic nude mice; type: in vivo; details: 1, 3 or 10 mpk twice weekly for 3 weeks, 2 day break, FIG. 11
# Procedure: Athymic nude mice bearing KM12 human colon carcinoma xenografts were treated with control (vehicle), m8524 (m276) (SEQ ID NOs: 26 and 27) alone (10 mg/kg (mpk)), or m8524 (m276)-MMAE ADCs at various dosages (1 mpk, 3 mpk, or 10 mpk) twice weekly for 3 weeks, followed by a 2 day break, followed by another dose twice weekly for 3 weeks. Tumor volume was measured at various time points after administration.
# [4] = tested on: OVCAR3 human ovarian xenografts; test: OVCAR3 human ovarian xenografts in SCID mice; type: in vivo; details: 1, 3 or 10 mpk on days 1, 4, 8 and 11; FIGS. 12 and 15
# Procedure: SCID mice bearing OVCAR3 human ovarian xenografts were treated with control (vehicle), m8524 (m276) (SEQ ID NOs: 26 and 27) alone (10 mg/kg (mpk)), MMAE alone (0.2 mpk), or m8524 (m276)-MMAE ADCs at various dosages (1 mpk, 3 mpk, or 10 mpk) on days 1, 4, 8 and 11. Tumor volume was measured at various time points after administration. The results are shown in FIG. 12 (up to Day 11) and FIG. 15 (up to Day 53).
# HCT116 cells = test: In vitro cell viability, HCT116; type: cell-based, human; details: various concentrations (nM), FIG. 13
# HT29 cells = test: In vitro cell viability, HT29; type: cell-based, human; details: various concentrations (nM), FIG. 13
# OVCAR3 cells = test: In vitro cell viability, OVCAR3; type: cell-based, human; details: various concentrations (nM), FIG. 13
# [5] = tested on: MDA-MB231 human breast cancer cells (mammary fat pad); test: MDA-MB231 human breast cancer orthotopic xenografts in athymic nude mice; type: in vivo; details: 1 mpk or 10 mpk twice weekly for 3 weeks; FIG. 16
# Procedure: MDA-MB231 human breast cancer cells were implanted in the mammary fat pad of athymic nude mice (orthotopic model). Tumor-bearing mice were treated with control (vehicle), m8524 (m276) (SEQ ID NOs: 26 and 27) alone (10 mg/kg (mpk)), or m8524 (m276)-MMAE ADCs (at a dose of 1 mpk or 10 mpk) twice weekly for 3 weeks. Tumor volume was measured at various time points after administration.
molecule,measurement,setting,value
B1,"cytotoxicity (cell viability, % of control)",HEK 293 cells (293),selectively cytotoxic
same,"cytotoxicity (cell viability, % of control)","293/CD276 cells; 293/CD276 cells (high CD276), various concentrations (nM)",selectively cytotoxic
same,selectivity for CD276-expressing cells,293/CD276 cells; 293/CD276 versus 293 cells,toxicity corresponding to CD276 expression levels
same,tumor volume as compared to control or m8524 (m276) alone,[1],decreased
same,tumor volume as compared to control or m8524 (m276) alone,[2],decreased
same,tumor volume as compared to control or m8524 (m276) alone,[3],decreased
same,"tumor volume as compared to control, MMAE alone, or m8524 (m276) alone",[4],decreased
same,cell viability,HCT116 cells,decreased
same,cell viability,HT29 cells,decreased
same,cell viability,OVCAR3 cells,decreased
same,tumor volume as compared to control or m8524 (m276) alone,[5],decreased
